Molecular target: Man9-V3 glycopeptide
Assay: BLI (Octet Red96), biotinylated Man9-V3 on streptavidin sensors, antibody in solution, bivalent avidity model

Substance DH270.1 (antibody) has a Kd of 331 nM.
Substance DH270.6 (antibody) has a Kd of 188 nM.

Source: patent publication US20220185871A1
